Here are results for five molecules from US20260158160A1 (MACFARLANE BURNET INSTITUTE FOR MEDICAL RESEARCH AND PUBLIC …, published 2026).

Substitutions are numbered along the chain they refer to. Where two headings read alike, the source gives them in different places.

In assay [1] the target is human death receptor 5 (DR5) on cells (human, UniProt O14763 56-440). Description: cell-based or functional assay.
Assay [2] deals with T1, SARS-CoV-2 spike protein expressed on Ramos-S cells (SARS-CoV-2, UniProt P0DTC2 14-1273).
T1 construct: whole, on cells; also called S protein; Ramos cells expressing transfected spike protein
Description: flow cytometry on Ramos-S cells. A general note: In flow cytometry, cells or beads pass a laser one at a time.

Assay [3] concerns the target T2, dimeric rsFcγRIIa (H131 allelic form) (UniProt P12318 34-217).
T2 construct: also called dimeric recombinant soluble FcγRIIa
T2 sequence: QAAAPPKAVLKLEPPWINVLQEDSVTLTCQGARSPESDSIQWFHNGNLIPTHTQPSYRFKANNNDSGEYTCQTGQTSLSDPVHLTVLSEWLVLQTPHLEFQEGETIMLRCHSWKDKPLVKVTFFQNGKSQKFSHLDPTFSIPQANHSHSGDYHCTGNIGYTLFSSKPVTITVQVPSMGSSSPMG
Description: flow cytometry: Ramos-S cells opsonised with the ACE2-Fc protein, biotinylated dimeric rsFcγRIIa probe, streptavidin-APC.

In assay [4] the target is T3, FcγRIIIa V158 on NF-κB-RE nanoluciferase reporter cells (UniProt P08637 17-254). Description: cell-based or functional assay.
Assay [5] concerns the target T3, FcγRIIIa V158 on NF-κB-RE …. Description: cell-based or functional assay. This is another data set of the same source.

T3 sequence (P08637 17-254 F176V limits assumed): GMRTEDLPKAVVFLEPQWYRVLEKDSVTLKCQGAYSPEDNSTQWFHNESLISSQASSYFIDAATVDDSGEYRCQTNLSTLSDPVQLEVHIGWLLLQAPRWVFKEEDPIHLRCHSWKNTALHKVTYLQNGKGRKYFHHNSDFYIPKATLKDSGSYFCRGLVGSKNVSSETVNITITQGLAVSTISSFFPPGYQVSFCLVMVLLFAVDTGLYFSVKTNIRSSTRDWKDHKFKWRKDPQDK

B1: TDR5-A2WT (antibody)
heavy: QVQLVQSGAEVKKPGASVKVSCKASGFNIKDTHMHWVRQAPGQRLEWIGRIDPANGNTEYDQKFQGRVTITVDTSASTAYMELSSLRSEDTAVYYCARWGTNVYFAYWGQGTLVTVSSASPTSPKVFPLSLDSTPQDGNVVVACLVQGFFPQEPLSVTWSESGQNVTARNFPPSQDASGDLYTTSSQLTLPATQCPDGKSVTCHVKHYTNPSQDVTVPCPVPPPPPCCHPRLSLHRPALEDLLLGSEANLTCTLTGLRDASGATFTWTPSSGKSAVQGPPERDLCGCYSVSSVLPGCAQPWNHGETFTCTAAHPELKTPLTANITKSGNTFRPEVHLLPPPSEELALNELVTLTCLARGFSPKDVLVRWLQGSQELPREKYLTWASRQEPSQGTTTFAVTSILRVAAEDWKKGDTFSCMVGHEALPLAFTQKTIDRLAG
light: DIQLTQSPSSLSASVGDRVTITCSASSSVSYMYWYQQKPGKAPKPWIYRTSNLASGVPSRFSGSGSGTDFTLTISSLQPEDFATYYCQQYHSYPPTFGGGTKVEIKRTVAAPSVFIFPPSDEQLKSGTASVVCLLNNFYPREAKVQWKVDNALQSGNSQESVTEQDSKDSTYSLSSTLTLSKADYEKHKVYACEVTHQGLSSPVTKSFNRGEC
Regarding B1, the “death of Colo205 cells, EC50 as dilution of culture supernatant” value in assay [1] was roughly 0.167 dilution.

B2: TDR5-A2HF (antibody)
heavy: B1 heavy with H422F
light: B1 light
As to B2, the “death of Colo205 cells, EC50 as dilution of culture supernatant” value in assay [1] was greater than 0.00195 dilution.

B3: CC40.8-WT (antibody)
heavy: not shown
light: SYELTQPPSVSVSPGQTARITCSGDALPKRYAYWYQQKSGQAPILVIYEDKKRPSGIPERLSGSKSGTVATLTISGAQVEDEADYYCYSTDSSGNHAVFGGGTQLTVLGQPKAAPSVFIFPPSDEQLKSGTASVVCLLNNFYPREAKVQWKVDNALQSGNSQESVTEQDSKDSTYSLSSTLTLSKADYEKHKVYACEVTHQGLSSPVTKSFNRGEC
In the case of B3, in assay [2], the binding result is given as “binds”.

B4: EflACE2-Fc-H429Y (Fc fusion)
chain: ETGSTIEEQAKYFLDKFNHEAEDLFYQSSLASWNYNTNITEENVQNMNNAGDKWSAFLKEQSTTAQMYPLQEIQNLTVKLQLQALQQNGSSVLSEDKSKRLNTILNTMSTIYSTGKVCNPDNPQECLLLEPGLNEIMANSLDYNERLWAWESWRSEVGKQLRPLYEEYVVLKNEMARANHYEDYGDYWRGDYEVNGVDGYDYSRGQLIEDVEHTFEEIKPLYEHLHAYVRAKLMNAYPSYISPIGCLPAHLLGDMWGRFWTNLYSLTVPFGQKPNIDVTDAMVDQAWDAQRIFKEAEKFFVSVGLPNMTQGFWEYSMLTDPGNVQKAVCHPTAWDLGKGDFRILMCTKVTMDDFLTAHHEMGHIQYDMAYAAQPFLLRNGANEGFHEAVGEIMSLSAATPKHLKSIGLLSPDFQEDNETEINFLLKQALTIVGTLPFTYMLEKWRWMVFKGEIPKDQWMKKWWEMKREIVGVVEPVPHDETYCDPASLFHVSNDYSFIRYYTRTLYQFQFQEALCQAAKHEGPLHKCDISNSTEAGQKLFNMLRLGKSEPWTLALENVVGAKNMNVRPLLNYFEPLFTWLKDQNKNSFVGWSTDWSPYADQSIKVRISLKSALGDRAYEWNDNEMYLFRSSVAYAMRQYFLKVKNQMILFGEEDVRVANLKPRISFNFFVTAPKNVSDIIPRTEVEKAIRMSRSRINDAFRLNDNSLEFLGIQPTLGPPNQPPVSGGGGSTHTCPPCPAPELLGGPSVFLFPPKPKDTLMISRTPEVTCVVVDVSHEDPEVKFNWYVDGVEVHNAKTKPREEQYNSTYRVVSVLTVLHQDWLNGKEYKCKVSNKALPAPIEKTISKAKGQPREPQVYTLPPSREEMTKNQVSLTCLVKGFYPSDIAVEWESNGQPENNYKTTPPVLDSDGSFFLYSKLTVDKSRWQQGNVFSCSVMYEALHNHYTQKSLSLSPGK
notes: also called EflACE2-Fc-H429Yoli; Yoli
For the molecule B4, in assay [3], the binding result is recorded as “no binding (tested: 5 µg/ml (opsonising protein))”.

B5: rituximab-WT (antibody, human IgG1, kappa)
heavy: not shown
light: QIVLSQSPAILSASPGEKVTMTCRASSSVSYIHWFQQKPGSSPKPWIYATSNLASGVPVRFSGSGSGTSYSLTISRVEAEDAATYYCQQWTSNPPTFGGGTKVEIKRTVAAPSVFIFPPSDEQLKSGTASVVCLLNNFYPREAKVQWKVDNALQSGNSQESVTEQDSKDSTYSLSSTLTLSKADYEKHKVYACEVTHQGLSSPVTKSFNRGEC
Turning to B5, the figures for the “EC50 (read off the curve), FcγRIIIa reporter activation” value in assay [4] and in assay [5] were roughly 0.03 nM and roughly 0.04 nM, respectively.
